# Non-standard residues stand in square brackets, D forms with d. No end group written: not given here. pS = N[C@@H](COP(=O)(O)O)C(=O)O
# T1: B-RAF 365 (10mer) (Homo sapiens, not fully specified)
# T1 chain: DRSS[pS]APNVH
# T2: 14-3-3σ, tagged with a Twin-Strep tag (UniProt P31947 1-248)
# T2 chain: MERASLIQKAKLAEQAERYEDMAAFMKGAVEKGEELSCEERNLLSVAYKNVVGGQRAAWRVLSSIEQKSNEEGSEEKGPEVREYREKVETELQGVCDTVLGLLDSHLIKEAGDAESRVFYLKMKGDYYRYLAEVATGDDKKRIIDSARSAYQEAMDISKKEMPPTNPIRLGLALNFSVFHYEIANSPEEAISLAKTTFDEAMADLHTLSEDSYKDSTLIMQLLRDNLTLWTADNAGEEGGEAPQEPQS
# T3: 14-3-3σ covalently bound to molecular glue 23 (UniProt P31947 1-248, C38 covalently bound to compound 23 (chloroacetamide warhead))
# T3 chain: T2 chain
# B1: FAM-labeled C-RAF259 peptide (10-mer) (peptide)
# chain: QRSTSTPNVH
# modifications: also: phosphoserine at S259, site in chain not given here, FAM label, site not given here
# B2: 14-3-3σ (natural protein)
# chain: T2 chain
# B3: acetylated 12-mer A-RAF peptide (peptide)
# chain: IRSTSTPNVHMV
# modifications: not fully specified (residue 5, N-terminus); also: phosphoserine at 214, position in chain not mapped
# B4: acetylated 12-mer C-RAF peptide (peptide)
# chain: QRSTSTPNVHMV
# modifications: not fully specified (residue 5, N-terminus); also: phosphoserine at 259, position in chain not mapped
# B5: acetylated 12-mer B-RAF peptide (peptide)
# chain: DRSSSAPNVHIN
# modifications: not fully specified (residue 5, N-terminus); also: phosphoserine at 365, position in chain not mapped
# Legend:
# 14-3-3σ [1] = biological target: B2; assay: FP; 100 uM compound 40
# 14-3-3σ [2] = biological target: B2; assay: FP; 100 uM compound 24
# 14-3-3σ [3] = biological target: B2; assay: FP; DMSO (reference for compounds 19, 33)
# 14-3-3σ [4] = biological target: B2; assay: FP; DMSO (reference for compound 11)
# 14-3-3σ [5] = biological target: B2; assay: FP; 100 uM compound 38
# 14-3-3σ [6] = biological target: B2; assay: FP; 100 uM compound 39
# 14-3-3σ [7] = biological target: B2; assay: FP; 100 uM compound 31
# 14-3-3σ [8] = biological target: B2; assay: FP; DMSO (reference for compounds 24, 30, 31)
# 14-3-3σ [9] = biological target: B2; assay: FP; DMSO (reference for compound 8)
# 14-3-3σ [10] = biological target: B2; assay: FP; DMSO (reference for compound 70)
# 14-3-3σ [11] = biological target: B2; assay: FP; 100 uM compound 30
# 14-3-3σ [12] = biological target: B2; assay: FP; 100 uM compound 12
# 14-3-3σ [13] = biological target: B2; assay: FP; 100 uM compound 21
# 14-3-3σ [14] = biological target: B2; assay: FP; DMSO (reference for compound 80)
# 14-3-3σ [15] = biological target: B2; assay: FP; 100 uM compound 83
# 14-3-3σ [16] = biological target: B2; assay: FP; 100 uM compound 46
# 14-3-3σ [17] = biological target: B2; assay: FP; 100 uM compound 32
# 14-3-3σ [18] = biological target: B2; assay: FP; 100 uM compound 19
# 14-3-3σ [19] = biological target: B2; assay: FP; 100 uM compound 33
# 14-3-3σ [20] = biological target: B2; assay: FP; 100 uM compound 11
# 14-3-3σ [21] = biological target: B2; assay: FP; 100 uM compound 18
# 14-3-3σ [22] = biological target: B2; assay: FP; 100 uM compound 80
# 14-3-3σ [23] = biological target: B2; assay: FP; 100 uM compound 8
# 14-3-3σ [24] = biological target: B2; assay: FP; DMSO (reference for compounds 12, 18, 21, 36, 39, 40)
# 14-3-3σ [25] = biological target: B2; assay: FP; 100 uM compound 36
# 14-3-3σ [26] = biological target: B2; assay: FP; DMSO
# 14-3-3σ [27] = biological target: B2; assay: FP; 100 uM compound 86
# 14-3-3σ [28] = biological target: B2; assay: FP; 100 uM compound 29
# 14-3-3σ [29] = biological target: B2; assay: FP; 100 uM compound 79
# 14-3-3σ [30] = biological target: B2; assay: FP; 100 uM compound 32
# 14-3-3σ [31] = biological target: B2; assay: FP; 100 uM compound 78
# 14-3-3σ [32] = biological target: B2; assay: FP; 100 uM compound 37
# 14-3-3σ [33] = biological target: B2; assay: FP; 100 uM compound 70
# 14-3-3σ [34] = biological target: B2; assay: FP; 100 uM compound 23
# 14-3-3σ [35] = biological target: B2; assay: FP; 100 uM compound 22
# B-RAF 365 (10mer) [36] = biological target: T1, B-RAF 365 (10mer); assay: FP; 100 uM compound 37
# B-RAF 365 (10mer) [37] = biological target: T1, B-RAF 365 (10mer); assay: FP; DMSO
# B-RAF 365 (10mer) [38] = biological target: T1, B-RAF 365 (10mer); assay: FP; 100 uM compound 23
# B-RAF 365 (10mer) [39] = biological target: T1, B-RAF 365 (10mer); assay: FP; 100 uM compound 32
# B-RAF 365 (10mer) [40] = biological target: T1, B-RAF 365 (10mer); assay: FP; 100 uM compound 86
# B-RAF 365 (10mer) [41] = biological target: T1, B-RAF 365 (10mer); assay: FP; 100 uM compound 29
# [42] = biological target: T2, 14-3-3σ, tagged with a Twin-Strep tag; assay: SPR
# [43] = biological target: T3, 14-3-3σ covalently bound to molecular …; assay: SPR; 14-3-3σ covalently bound to molecular glue 23
binder,measurement,setting,value
B1,Kd,14-3-3σ [1],320 nM
same,Kd,14-3-3σ [2],110 nM
same,Kd,14-3-3σ [3],3050 nM
same,Kd,14-3-3σ [4],1320 nM
same,Kd,14-3-3σ [5],218 nM
same,Kd,14-3-3σ [6],420 nM
same,Kd,14-3-3σ [7],1420 nM
same,Kd,14-3-3σ [8],2280 nM
same,Kd,14-3-3σ [9],6700 nM
same,Kd,14-3-3σ [10],5510 nM
same,Kd,14-3-3σ [11],780 nM
same,Kd,14-3-3σ [12],190 nM
same,Kd,14-3-3σ [13],480 nM
same,Kd,14-3-3σ [14],4600 nM
same,Kd,14-3-3σ [15],102 nM
same,Kd,14-3-3σ [16],170 nM
same,Kd,14-3-3σ [17],140 nM
same,Kd,14-3-3σ [18],213 nM
same,Kd,14-3-3σ [19],230 nM
same,Kd,14-3-3σ [20],400 nM
same,Kd,14-3-3σ [21],280 nM
same,Kd,14-3-3σ [22],420 nM
same,Kd,14-3-3σ [23],6600 nM
same,Kd,14-3-3σ [24],4200 nM
same,Kd,14-3-3σ [25],240 nM
"GQRDRSSSAPNVHIN (also: phosphoserine at S365, site in chain not given here) [15-mer B-RAF peptide]",Kd,14-3-3σ [26],2240 nM
same,Kd,14-3-3σ [27],95 nM
same,Kd,14-3-3σ [28],14 nM
same,Kd,14-3-3σ [29],60 nM
same,Kd,14-3-3σ [15],94 nM
same,Kd,14-3-3σ [30],245 nM
same,Kd,14-3-3σ [31],55 nM
same,Kd,14-3-3σ [22],220 nM
same,Kd,14-3-3σ [32],25 nM
same,Kd,14-3-3σ [33],70 nM
"LQRIRSTSTPNVHMV (also: phosphoserine at S214, site in chain not given here) [15-mer A-RAF peptide]",Kd,14-3-3σ [34],5 nM
same,Kd,14-3-3σ [27],140 nM
same,Kd,14-3-3σ [28],30 nM
same,Kd,14-3-3σ [29],115 nM
same,Kd,14-3-3σ [15],265 nM
same,Kd,14-3-3σ [30],50 nM
same,Kd,14-3-3σ [31],120 nM
same,Kd,14-3-3σ [22],1100 nM
same,Kd,14-3-3σ [32],25 nM
same,Kd,14-3-3σ [35],9 nM
same,Kd,14-3-3σ [33],110 nM
"SQRQRSTSTPNVHMV (also: phosphoserine at S259, site in chain not given here) [15-mer C-RAF peptide]",Kd,14-3-3σ [27],140 nM
same,Kd,14-3-3σ [29],135 nM
same,Kd,14-3-3σ [15],145 nM
same,Kd,14-3-3σ [22],332 nM
same,Kd,14-3-3σ [32],136 nM
same,Kd,14-3-3σ [33],100 nM
B2,Kd,B-RAF 365 (10mer) [36],52 nM
same,Kd,B-RAF 365 (10mer) [37],650 nM
same,Kd,B-RAF 365 (10mer) [38],105 nM
same,Kd,B-RAF 365 (10mer) [39],112 nM
same,Kd,B-RAF 365 (10mer) [40],155 nM
same,Kd,B-RAF 365 (10mer) [41],140 nM
B3,Kd,[42],2000 nM
same,Kd,[43],1.7 nM
B4,Kd,[43],1.2 nM
B5,Kd,[43],6.3 nM

# Reference: publication PMC12903857 (2026)
